{"source": "paper PMC3017832", "about": "“Molecular analysis of phosphomannomutase (PMM) genes reveals a unique PMM duplication event in diverse Triticeae species and the main PMM isozymes in bread wheat tissues” (BMC Plant Biology, 2010)", "proteins": {"B1": {"name": "TaPMM-D1 (Triticum aestivum) (protein)", "chain": "MAAAAAARKTAGVLALFDVDGTLTAPRKEVTPEMLEFMKRLRENVTVGVVGGSDLVKISEQLGKSVITDYDYVFSENGLVAHKDGKLIGTQSLKTYLGDDQLKEFINFTLHYIADLDIPIKRGTFIEFRSGMINVSPIGRNCSQEERDDFEKYDKVHNVRPKMVSVLREKFAHLNLTFSIGGQISFDVFPQGWDKTYCLRYLEEFKEIHFFGDKTYKGGNDHEIFESERTVGHTVTSPNDTVQQCKSIFLSE"}, "B2": {"name": "TaPMM-A1 (Triticum aestivum) (protein)", "chain": "MAAARKDAGVLALFDVDGTLTAPRKEVTPEMLEFMKRLRENVTVGVVGGSDLVKISEQLGKSVITDYDYVFSENGLVAHKDGKLIGTQSLKTYLGDDQLKEFINFTLHYIADLDIPIKRGTFIEFRSGMINVSPIGRNCSQEERDDFEKYDKVHNVRPKMVSVLREKFAHLNLTFSIGGQISFDVFPQGWDKTYCLRYLEEFKEIHFFGDKTYKGGNDHEIFESDRTVGHTVTSPNDTVQQCKSIFLSE"}, "B3": {"name": "TaPMM-D2 (Triticum aestivum) (protein)", "chain": "MVASAARKNAGVLALFDVDGTLTAPRKEVTPEMLEFMKRLRENVTVGVVGGSDLVKISEQLGKSVITDYDYVFSENGLVAHKDGKLIGTQSLKTYLGDDQLKEFINFTLHYIADLDIPIKRGTFIEFRSGMINVSPIGRNCSQEERDDFEKYDKVHNVRPKMVSMLREKFAHLNLTFSIGGQISFDVFPHGWDKTYCLRYLDEFKEIHFFGDKTYKGGNDHEIFESDRTVGHTVTSPDDTVQQCRSIFLSK"}}, "experiment_in_all_cases": "spectrophotometric PMM assay (as in earlier work)", "assay_type_in_all_cases": "biochemical, Triticum aestivum", "settings_in_all_cases": "average of three experiments; temperature and pH not given", "key": {"[1]": {"substrate": "O=P(O)(O)O[C@H]1O[C@H](CO)[C@@H](O)[C@H](O)[C@@H]1O", "description": "spectrophotometric PMM assay (as in earlier work) on TaPMM-D1 | The average Km (mM, mannose-1-phosphate) values calculated for recombinant A1, D1 and D2 proteins"}, "[2]": {"substrate": "O=P(O)(O)O[C@H]1O[C@H](CO)[C@@H](O)[C@H](O)[C@@H]1O", "description": "spectrophotometric PMM assay (as in earlier work) on TaPMM-A1 | The average Km (mM, mannose-1-phosphate) values calculated for recombinant A1, D1 and D2 proteins", "remark": "listed apart in the source"}, "[3]": {"substrate": "O=P(O)(O)O[C@H]1O[C@H](CO)[C@@H](O)[C@H](O)[C@@H]1O", "description": "spectrophotometric PMM assay (as in earlier work) on TaPMM-D2 | The average Km (mM, mannose-1-phosphate) values calculated for recombinant A1, D1 and D2 proteins", "remark": "listed apart in the source"}}}
{"protein": "B1", "values": [{"measurement": "Km", "setting": "[1]", "value": "400 ± 20", "unit": "µM"}]}
{"protein": "B2", "values": [{"measurement": "Km", "setting": "[2]", "value": "460 ± 20", "unit": "µM"}]}
{"protein": "B3", "values": [{"measurement": "Km", "setting": "[3]", "value": "480 ± 20", "unit": "µM"}]}
